PMC7430671 (2020)

B1: RapZ_(1–279), BACTH fusion [E. coli] / full-length RNase E (RneFL), BACTH fusion [E. coli] (parent complex)
chain 1: MVLMIVSGRSGSGKSVALRALEDMGFYCVDNLPVVLLPDLARTLADREISAAVSIDVRNMPESPEIFEQAMSNLPDAFSPQLLFLDADRNTLIRRYSDTRRLHPLSSKNLSLESAIDKESDLLEPLRSRADLIVDTSEMSVHELAEMLRTRLLGKRERELTMVFESFGFKHGIPIDADYVFDVRFLPNPHWDPKLRPMTGLDKPVAAFLDRHTEVHNFIYQTRSYLELWLPMLETNNRSYLTVAIGCTGGKHRSVYIAEQLADYFRSRGKNVQSRHRTL
chain 2: not shown
B2: RapZ_(1–279), BACTH fusion [E. coli] / itself (parent complex)
chain: B1 chain 1

Variants of: B1
Assay: BACTH assay (β-galactosidase activity); top panel; T18-RapZ1-279 variant with T25-RneFL (pYG100); mean ± SD, n ≥ 2; parent: 1.7e+03; read off a plot

How did the response turn out when chain 1 T278G was run?
The response was about 980 Miller units.

With chain 1 T278G, chain 1 L279G as the variant, how does the response read?
Its response is about 50 Miller units.

Which response does the source give for chain 1 L279G here?
The response was about 100 Miller units.

Variants of: B2
Assay: BACTH assay (self-interaction; β-galactosidase activity); bottom panel; same RapZ1-279 variant fused to T18 and to T25; mean ± SD, n ≥ 2; parent: 4.1e+03; read off a plot

With MVLMIVSGRSGSGKSVALRALEDMGFYCVDNLPVVLLPDLARTLADREISAAVSIDVRNMPESPEIFEQAMSNLPDAFSPQLLFLDADRNTLIRRYSDTRRLHPLSSKNLSLESAIDKESDLLEPLRSRADLIVDTSEMSVHELAEMLRTRLLGKRERELTMVFESFGFKHGIPIDADYVFDVRFLPNPHWDPKLRPMTGLDKPVAAFLDRHTEVHNFIYQTRSYLELWLPMLETNNRSYLTVAIGCTGGKHRSVYIAEQLADYFRSRGKNVQSRHRTG [chain 1 L279G] as the variant, how does the response read?
The response was about 3300 Miller units.

How did the response turn out when MVLMIVSGRSGSGKSVALRALEDMGFYCVDNLPVVLLPDLARTLADREISAAVSIDVRNMPESPEIFEQAMSNLPDAFSPQLLFLDADRNTLIRRYSDTRRLHPLSSKNLSLESAIDKESDLLEPLRSRADLIVDTSEMSVHELAEMLRTRLLGKRERELTMVFESFGFKHGIPIDADYVFDVRFLPNPHWDPKLRPMTGLDKPVAAFLDRHTEVHNFIYQTRSYLELWLPMLETNNRSYLTVAIGCTGGKHRSVYIAEQLADYFRSRGKNVQSRHRGL [chain 1 T278G] was run?
Its response is about 4000 Miller units.
